Measured values published in patent publication US20170283458A1, “COLLAGEN-BINDING SYNTHETIC PEPTIDOGLYCANS FOR WOUND HEALING” (Symic Biomedical, Inc., priority 2009, published 2017).
Ends that are not written are not given here.

Key:
[1] = tested on: Human aortic smooth muscle cells; experiment: Collagen remodeling: hydroxyproline content in medium of cell-seeded collagen gels; assay type: cell-based; conditions: vs collagen alone; cultures up to 30 days
Experimental: Following a method by Grassl, et al. (Grassl, et al., Journal of Biomedical Materials Research 2002, 60, (4), 607-612), which is herein incorporated in its entirety, collagen gels with or without synthetic PG mimics were formed as described in EXAMPLE 16. Human aortic smooth muscle cells (Cascade Biologics, Portland, Oreg.) were seeded within collagen gels by adding 4×10^6 cells/mL to the neutralized collagen solution prior to incubation. The cell-collagen solutions were pipetted into an 8-well Lab-Tek chamber slide and incubated in a humidified 37° C. and 5% CO2 incubator. After gelation, the cell-collagen gels will be covered with 1 mL Medium 231 as prescribed by Cascade. Every 3-4 days, the medium was removed from the samples and the hydroxyproline content measured by a standard hydroxyproline assay (Reddy, 1996).
To measure degraded collagen in the supernatant medium, the sample was lyophilized, the sample hydrolyzed in 2M NaOH at 120° C. for 20 min. After cooling, free hydroxyproline was oxidized by adding chloramine-T (Sigma) and reacting for 25 min at room temperature. Ehrlich's aldehyde reagent (Sigma) was added and allowed to react for 20 min at 65° C. and followed by reading the absorbance at 550 nm on an M-5 spectrophotometer (Molecular Devices). […] Cultures were incubated for up to 30 days and three samples of each treatment measured. […]

collagen = target: T1, collagen (Bos taurus, UniProt P02453+P02465); experiment: Fibrillogenesis turbidity assay (absorbance at 313 nm); assay type: biochemical; conditions: 1:1 collagen:additive molar ratio, vs collagen alone
T1 construct: purchased Inamed, Freemont, Calif; Nutragen
T1 sequence (P02453 162-1217 limits assumed): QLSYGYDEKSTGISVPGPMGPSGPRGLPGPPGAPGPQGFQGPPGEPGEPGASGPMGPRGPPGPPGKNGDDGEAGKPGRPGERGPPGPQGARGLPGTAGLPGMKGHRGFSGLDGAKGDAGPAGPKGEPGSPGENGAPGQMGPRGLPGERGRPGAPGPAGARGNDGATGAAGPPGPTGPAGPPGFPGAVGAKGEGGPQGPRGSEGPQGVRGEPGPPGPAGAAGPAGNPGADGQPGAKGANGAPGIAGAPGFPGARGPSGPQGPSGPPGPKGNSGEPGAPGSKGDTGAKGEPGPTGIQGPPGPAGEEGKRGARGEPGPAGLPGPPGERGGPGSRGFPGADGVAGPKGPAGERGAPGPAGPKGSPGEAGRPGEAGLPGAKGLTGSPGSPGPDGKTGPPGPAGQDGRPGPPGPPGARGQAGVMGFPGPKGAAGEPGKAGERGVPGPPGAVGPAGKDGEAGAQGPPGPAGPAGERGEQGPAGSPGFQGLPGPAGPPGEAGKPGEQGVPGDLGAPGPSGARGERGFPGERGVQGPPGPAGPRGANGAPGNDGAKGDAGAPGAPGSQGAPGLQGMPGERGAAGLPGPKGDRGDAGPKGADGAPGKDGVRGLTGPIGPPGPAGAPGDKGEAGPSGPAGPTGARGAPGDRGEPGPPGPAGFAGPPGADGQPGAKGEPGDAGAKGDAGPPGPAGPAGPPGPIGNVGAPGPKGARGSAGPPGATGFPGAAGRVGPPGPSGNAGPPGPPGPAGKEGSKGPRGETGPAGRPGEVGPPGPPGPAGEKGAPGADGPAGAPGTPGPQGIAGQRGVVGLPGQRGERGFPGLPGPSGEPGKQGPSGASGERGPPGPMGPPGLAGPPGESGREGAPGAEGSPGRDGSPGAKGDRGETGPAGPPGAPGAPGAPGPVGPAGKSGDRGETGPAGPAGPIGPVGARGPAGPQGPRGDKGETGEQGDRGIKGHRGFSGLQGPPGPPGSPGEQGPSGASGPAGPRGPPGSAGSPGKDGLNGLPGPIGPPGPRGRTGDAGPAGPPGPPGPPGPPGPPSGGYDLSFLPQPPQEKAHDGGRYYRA
T1 sequence (P02465 80-1117 limits assumed): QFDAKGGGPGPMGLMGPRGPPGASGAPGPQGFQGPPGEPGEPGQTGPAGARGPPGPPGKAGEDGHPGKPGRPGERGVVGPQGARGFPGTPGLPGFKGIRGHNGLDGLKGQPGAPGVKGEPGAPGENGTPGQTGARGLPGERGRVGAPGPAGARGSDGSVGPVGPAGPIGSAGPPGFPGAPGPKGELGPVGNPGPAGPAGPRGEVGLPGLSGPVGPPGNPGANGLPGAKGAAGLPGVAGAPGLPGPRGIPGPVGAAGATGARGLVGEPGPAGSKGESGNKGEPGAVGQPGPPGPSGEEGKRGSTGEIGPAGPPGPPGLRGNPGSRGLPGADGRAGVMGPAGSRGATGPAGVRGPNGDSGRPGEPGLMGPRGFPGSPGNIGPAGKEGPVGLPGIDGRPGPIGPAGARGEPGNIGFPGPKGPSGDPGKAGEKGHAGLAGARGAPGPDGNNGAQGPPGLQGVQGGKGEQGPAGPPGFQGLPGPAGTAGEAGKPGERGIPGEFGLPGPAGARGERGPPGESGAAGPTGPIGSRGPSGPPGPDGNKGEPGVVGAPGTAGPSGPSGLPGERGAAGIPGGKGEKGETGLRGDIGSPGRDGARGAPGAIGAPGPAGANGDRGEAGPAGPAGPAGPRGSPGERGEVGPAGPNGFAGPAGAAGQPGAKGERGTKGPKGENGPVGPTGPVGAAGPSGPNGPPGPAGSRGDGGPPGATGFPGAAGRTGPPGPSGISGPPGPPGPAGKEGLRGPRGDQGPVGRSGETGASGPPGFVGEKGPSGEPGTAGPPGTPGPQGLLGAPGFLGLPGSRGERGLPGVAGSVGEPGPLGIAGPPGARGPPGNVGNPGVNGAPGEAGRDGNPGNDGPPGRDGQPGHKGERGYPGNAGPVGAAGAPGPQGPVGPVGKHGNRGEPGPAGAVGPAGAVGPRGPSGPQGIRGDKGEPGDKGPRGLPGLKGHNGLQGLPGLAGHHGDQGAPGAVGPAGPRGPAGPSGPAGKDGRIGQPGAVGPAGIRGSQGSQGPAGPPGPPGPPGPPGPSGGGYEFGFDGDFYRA
Experimental: (§1) Gels were made with Nutragen collagen (Inamed, Freemont, Calif.) at a final concentration of 4 mg/mL collagen. Nutragen stock is 6.4 mg/mL in 10 mM HCl. Gel preparation was performed on ice, and fresh samples were made before each test. The collagen solution was adjusted to physiologic pH and salt concentration, by adding appropriate volumes of 10×PBS (phosphate buffered saline), 1×PBS, and 1M NaOH. For most experiments, samples of DS, decorin, DS-SILY, or DS-Dc13 were added at a 10:1 collagen:treatment molar ratio by a final 1×PBS addition (equal volumes across treatments) in which the test samples were dissolved at appropriate concentrations. In this way, samples are constantly kept at pH 7.4 and physiologic salt concentration. Collagen-alone samples received a 1×PBS addition with no sample dissolved. Fibrillogenesis will be induced by incubating neutralized collagen solutions at 37° C. overnight in a humidified chamber to avoid dehydration. Gel solutions with collagen:treatment molar ratios of other than 10:1 were prepared similarly.
Collagen fibrillogenesis was monitored by measuring turbidity related absorbance at 313 nm providing information on rate of fibrillogenesis and fibril diameter. Gel solutions were prepared as described in EXAMPLE 16 (4 mg/mL collagen, 10:1 collagen:treatment, unless otherwise indicated) and 50 uL/well were added at 4° C. to a 384-well plate. The plate was kept at 4° C. for 4 hours before initiating fibril formation. A SpectraMax M5 at 37° C. was used to measure absorbance at 313 nm at 30 s intervals for 6 hours.
A fibrillogenesis assay as described for DS-SILY, EXAMPLE 19, performed with the conjugate DS-Dc13.

collagen III = target: T2, collagen III (Homo sapiens, UniProt P02461); experiment: Cryo-SEM measurements on collagen III, void space; assay type: biochemical; conditions: 1 mg/mL collagen (90% collagen III), 1:1 collagen:peptidoglycan
T2 construct: purchased Millipore
T2 sequence (P02461 154-1221 limits assumed): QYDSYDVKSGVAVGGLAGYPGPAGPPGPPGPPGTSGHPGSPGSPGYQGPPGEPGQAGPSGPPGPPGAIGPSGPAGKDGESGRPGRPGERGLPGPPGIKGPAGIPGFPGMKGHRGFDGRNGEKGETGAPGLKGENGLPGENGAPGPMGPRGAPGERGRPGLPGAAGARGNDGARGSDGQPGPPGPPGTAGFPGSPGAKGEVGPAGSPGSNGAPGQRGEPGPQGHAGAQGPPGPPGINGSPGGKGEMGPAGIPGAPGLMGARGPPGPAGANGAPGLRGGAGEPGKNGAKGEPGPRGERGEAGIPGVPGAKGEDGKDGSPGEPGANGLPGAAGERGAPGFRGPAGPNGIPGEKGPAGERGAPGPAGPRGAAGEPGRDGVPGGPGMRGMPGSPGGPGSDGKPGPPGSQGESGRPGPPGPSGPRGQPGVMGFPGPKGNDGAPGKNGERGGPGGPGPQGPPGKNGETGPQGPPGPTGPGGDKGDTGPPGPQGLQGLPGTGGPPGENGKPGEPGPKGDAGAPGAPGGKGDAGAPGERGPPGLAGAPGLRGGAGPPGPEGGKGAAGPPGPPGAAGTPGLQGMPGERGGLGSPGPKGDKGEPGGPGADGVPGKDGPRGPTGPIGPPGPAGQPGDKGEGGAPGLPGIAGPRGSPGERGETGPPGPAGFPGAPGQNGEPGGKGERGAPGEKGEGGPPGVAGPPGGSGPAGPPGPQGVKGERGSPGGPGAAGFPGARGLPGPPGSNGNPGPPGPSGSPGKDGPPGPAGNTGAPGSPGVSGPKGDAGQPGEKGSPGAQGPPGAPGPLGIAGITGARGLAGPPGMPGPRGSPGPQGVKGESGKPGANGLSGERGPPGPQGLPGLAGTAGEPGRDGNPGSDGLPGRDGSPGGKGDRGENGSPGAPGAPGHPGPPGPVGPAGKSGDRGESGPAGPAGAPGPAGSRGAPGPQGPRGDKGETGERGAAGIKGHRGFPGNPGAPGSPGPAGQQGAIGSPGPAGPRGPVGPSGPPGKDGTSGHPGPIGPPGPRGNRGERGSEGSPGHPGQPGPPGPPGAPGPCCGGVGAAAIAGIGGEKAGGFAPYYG
Experimental: Gels for cryo-SEM were formed, as in EXAMPLE 16, directly on the SEM stage and incubated at 37° C. overnight with the following modifications. The collagen concentration was 1 mg/mL (90% collagen III, 10% collagen I). The collagen:DS ratio was 1:1 and the collagen:peptidoglycan ratio was 1:1. The images were recorded as in EXAMPLE 21. The ratio of void volume to fibril volume was measured using a variation of the method in EXAMPLE 21.

collagen type III = target: T3, collagen type III (Homo sapiens, UniProt P02461); experiment: Viscoelastic characterization of collagen III containing gels; assay type: biochemical; conditions: 1.5 mg/mL collagen (90% collagen III); 1:1 and 5:1 molar ratios
T3 construct: purchased Millipore
T3 sequence (P02461 154-1221 limits assumed): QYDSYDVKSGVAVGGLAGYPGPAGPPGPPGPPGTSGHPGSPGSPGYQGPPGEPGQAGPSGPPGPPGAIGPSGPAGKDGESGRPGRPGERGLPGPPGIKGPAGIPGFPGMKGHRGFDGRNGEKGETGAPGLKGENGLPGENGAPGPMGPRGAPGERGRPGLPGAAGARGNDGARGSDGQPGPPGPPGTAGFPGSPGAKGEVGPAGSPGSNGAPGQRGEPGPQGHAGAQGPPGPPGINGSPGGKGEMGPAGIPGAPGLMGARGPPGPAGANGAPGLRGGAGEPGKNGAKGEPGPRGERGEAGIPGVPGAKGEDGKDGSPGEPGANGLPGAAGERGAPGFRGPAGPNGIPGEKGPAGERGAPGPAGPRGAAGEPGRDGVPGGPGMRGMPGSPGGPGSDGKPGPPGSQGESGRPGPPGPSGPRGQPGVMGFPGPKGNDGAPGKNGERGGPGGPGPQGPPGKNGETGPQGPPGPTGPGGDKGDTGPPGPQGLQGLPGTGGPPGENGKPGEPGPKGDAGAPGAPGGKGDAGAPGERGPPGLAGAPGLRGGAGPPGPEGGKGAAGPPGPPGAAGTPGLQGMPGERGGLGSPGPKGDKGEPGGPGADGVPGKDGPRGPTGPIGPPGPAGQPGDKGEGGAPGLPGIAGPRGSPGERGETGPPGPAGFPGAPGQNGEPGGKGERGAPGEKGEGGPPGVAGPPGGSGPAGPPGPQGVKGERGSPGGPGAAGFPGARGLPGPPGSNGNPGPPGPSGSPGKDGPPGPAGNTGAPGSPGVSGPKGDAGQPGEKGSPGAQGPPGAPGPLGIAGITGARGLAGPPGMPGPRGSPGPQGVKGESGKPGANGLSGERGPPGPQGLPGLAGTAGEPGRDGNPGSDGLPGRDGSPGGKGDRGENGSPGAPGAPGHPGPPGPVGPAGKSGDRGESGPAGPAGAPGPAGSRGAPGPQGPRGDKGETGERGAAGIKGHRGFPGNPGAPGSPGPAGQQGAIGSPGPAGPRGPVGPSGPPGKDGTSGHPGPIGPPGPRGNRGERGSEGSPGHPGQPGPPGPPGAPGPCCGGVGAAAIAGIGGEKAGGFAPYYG
Experimental: Gels containing type III collagen were prepared as in EXAMPLE 16 with the following modifications: treated and untreated gel solutions were prepared using a collagen concentration of 1.5 mg/mL (90% collagen III (Millipore), 10% collagen I), 200 μL samples were pipetted onto 20 mm diameter wettable surfaces of hydrophobic printed slides. These solutions were allowed to gel at 37° C. for 24 hours. Gels were formed from collagen alone, collagen treated with dermatan sulfate (1:1 and 5:1 molar ratio), and collagen treated with the collagen III-binding peptides alone (GSIT and KELN, 5:1 molar ratio) served as controls.

Human dermal fibroblasts = experiment: TGF-β1 production by human dermal fibroblasts (ELISA); assay type: cell-based; conditions: 1.4 μM treatment, 48 hours
Experimental: Human dermal fibroblasts (Cascade Biologics) were seeded onto 96-well tissue culture polystyrene plates at a seeding density of 1.83×10^3 cells/well. Cells adhered overnight and cell medium was aspirated. 100 μL/well of cell medium containing a final concentration of 1.4 μM treatment delivered from a concentrated solution of treatment in 1×PBS was added to the cells. After 48 hours, cell medium was removed and frozen at −80 C until further testing. TGF-β1 was measured by ELISA using a kit and protocol from R&D Systems.

collagen I = target: T4, collagen I (Bos taurus, UniProt P02453+P02465); experiment: Cryo-SEM measurements on collagen I, fibril diameter; assay type: biochemical; conditions: 4 mg/mL collagen, 10:1 collagen:treatment, cryo-SEM 20,000×
T4 construct: purchased Inamed, Freemont, Calif; Nutragen
T4 sequence (P02453 162-1217 limits assumed): as the sequence (P02453 162-1217 limits assumed) above
T4 sequence (P02465 80-1117 limits assumed): as the sequence (P02465 80-1117 limits assumed) above
Experimental: as §1
Gels for cryo-SEM were formed, as in EXAMPLE 16, directly on the SEM stage and incubated at 37° C. overnight. The stages were then secured in a cryo-holder and plunged into liquid nitrogen slush. Samples were then transferred to a Gatan Alto 2500 pre-chamber cooled to −170° C. under vacuum. A free-break surface was created with a cooled scalpel, and each sample evaporated under sublimation conditions for 20 min. The sample was coated by platinum sputter coating for 120 s. Samples were transferred to the cryo-stage at −130° C. and regions with similar orientation were imaged for comparison across treatments. Analysis of the images was performed to determine the fibril diameter distribution, presented in histograms adjacent the corresponding image in FIG. 14, and average fibril diameter, FIG. 17 an 18;. Fibril diameter was calculated using ImageJ software (NIH) measuring individual fibrils by hand (drawing a line across fibrils and measuring its length after properly setting the scale). At least 45 independent fibril measurement were recorded for average fibril diameter calculations.

[2] = tested on: Human coronary artery smooth muscle cells (HCA SMC); experiment: Gel compaction by smooth muscle cells in collagen gels; assay type: cell-based; conditions: Days 3 and 5
Experimental: Human coronary artery smooth muscle cells (HCA SMC) (Cascade Biologics) were cultured in growth medium (Medium 231 supplemented with smooth muscle growth factor). Cells from passage 3 were used for all experiments. Differentiation medium (Medium 231 supplemented with 1% FBS and 1× pen/strep) was used for all experiments unless otherwise noted.
Collagen gels were prepared with each additive as described with the exception that the 1×PBS example addition was omitted to accommodate the addition of cells in media. After incubating on ice for 30 min, HCA SMCs in differentiation medium were added to the gel solutions to a final concentration of 1×10^6 cells/mL. Gels were formed in quadruplicate in 48-well non-tissue culture treated plates (Costar) for 6 hrs before adding 500 μL/well differentiation medium. Gels were freed from the well edges after 24 hrs. Medium was changed every 2-3 days and images for compaction were taken at the same time points using a Gel Doc System (Bio-Rad). The cross-sectional area of circular gels correlating to degree of compaction was determined using ImageJ software (NIH). Gels containing no cells were used as a negative control and cells in collagen gels absent additive were used as a positive control. […] By day 10 all gels had compacted to approximately 10% of the original gel area, and differences between additives were small.

## SYIRIADTNITGC [Dc13]
[1]
  collagen degradation measured by hydroxyproline content in cell medium: greater collagen degradation compared to collagen alone
collagen
  effect on fibrillogenesis: little effect on fibrillogenesis compared to collagen alone

## DS-GSIT: dermatan sulfate conjugated to GSIT peptide GSITTIDVPWNVGC (also: dermatan sulfate conjugate, site not given here)
Collagen III
  void space: decrease void space (increase fibril diameter and branching)
Collagen type III
  viscoelastic properties of gels formed with collagen type III: can influence the viscoelastic properties of gels formed with collagen type III

## DS-KELN: dermatan sulfate conjugated to KELN peptide KELNLVYTGC (also: dermatan sulfate conjugate, site not given here)
Collagen III
  void space: decrease void space (increase fibril diameter and branching)
Collagen type III
  viscoelastic properties of gels formed with collagen type III: can influence the viscoelastic properties of gels formed with collagen type III

B1: decorin: proteoglycan known to influence collagen fibrillogenesis (protein, UniProt P07585 31-359, looked up)
Decorin: DEASGIGPEVPDDRDFEPSLGPVCPFRCQCHLRVVQCSDLGLDKVPKDLPPDTTLLDLQNNKITEIKDGDFKNLKNLHALILVNNKISKVSPGAFTPLVKLERLYLSKNQLKELPEKMPKTLQELRAHENEITKVRKVTFNGLNQMIVIELGTNPLKSSGIENGAFQGMKKLSYIRIADTNITSIPQGLPPSLTELHLDGNKISRVDAASLKGLNNLAKLGLSFNSISAVDNGSLANTPHLRELHLDNNKLTRVPGGLAEHKYIQVVYLHNNNISVVGSSDFCPPGHNTKKASYSGVSLFSNPVQYWEIQPSTFRCVYVRSAIQLGNYK
Human dermal fibroblasts
  TGF-β1 in cell medium: significantly decreased TGF-β1
Collagen I
  average fibril diameter: significant decrease in average fibril diameter
[2]
  gel compaction at early time points: significantly compacted more than gels made of collagen alone or collagen with dermatan sulfate
